In patent publication US20060024300A1:

What was measured:
CD20 (human) [1] = target: CD20 (human) (UniProt P11836); assay: cell-based or functional assay
CD20 (human) [2] = target: CD20 (human) (UniProt P11836); assay: Scatchard analysis, cold antibody against 125I-2H7.v16 on WIL2-S cells

CD20 (human), sequence (P11836 whole entry): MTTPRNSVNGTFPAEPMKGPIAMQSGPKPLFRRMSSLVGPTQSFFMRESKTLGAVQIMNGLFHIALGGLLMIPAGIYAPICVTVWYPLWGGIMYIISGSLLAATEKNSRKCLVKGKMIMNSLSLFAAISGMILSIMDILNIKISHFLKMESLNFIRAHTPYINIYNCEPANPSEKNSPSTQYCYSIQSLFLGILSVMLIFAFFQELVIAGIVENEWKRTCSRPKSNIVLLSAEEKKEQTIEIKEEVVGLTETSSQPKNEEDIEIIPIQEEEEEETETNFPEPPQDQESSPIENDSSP

ADCC on WIL2-S cells, EC50(variant)/EC50(2H7.v16) (CD20 (human) [1]): 5.3 | ADCC on WIL2-S cells, EC50(variant)/EC50(Rituxan) (CD20 (human) [1]): 1 | CDC on WIL2-S cells, EC50(variant)/EC50(Rituxan) (CD20 (human) [1]): 1 | fraction of Annexin V stained Ramos cells at 10 nM crosslinked antibody (CD20 (human) [1]): 16.5% | fraction of doubly labeled (Annexin V and propidium iodide) Ramos cells at 10 nM (CD20 (human) [1]): 38% | live Ramos cells counted per 10 s at 10 nM (cells per 10 s) (CD20 (human) [1]): 3100 | Kd (CD20 (human) [2]): 0.99 nM
Substance: Rituxan (rituximab) (antibody)
